From publication PMC12990809

Assays:
Experiment in all cases: pulldown
[1] = target: T1, Hrb87F (Drosophila melanogaster) (UniProt P48810); conditions: 20 nM protein, 1.5 uM RNA pool; 20 mM HEPES pH 7.8, 70 mM KCl, 10 mM NaCl, 10% glycerol, 2 mM DTT, 0.1 ug/uL BSA; 30 min, 4 C (protocol of this paper; not …); cited from earlier work
T1 sequence: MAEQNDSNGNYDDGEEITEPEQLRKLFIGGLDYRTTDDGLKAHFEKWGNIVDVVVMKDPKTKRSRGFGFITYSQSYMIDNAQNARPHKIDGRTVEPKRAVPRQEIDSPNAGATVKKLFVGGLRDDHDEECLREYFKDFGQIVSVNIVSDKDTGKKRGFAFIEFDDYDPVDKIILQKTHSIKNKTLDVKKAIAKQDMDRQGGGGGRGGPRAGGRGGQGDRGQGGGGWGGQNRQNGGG

tardbpl (Danio rerio) = target: T2, tardbpl (Danio rerio) (UniProt A0A8M1PDP8); conditions: 20 nM protein, 1.5 uM RNA pool; 20 mM HEPES pH 7.8, 70 mM KCl, 10 mM NaCl, 10% glycerol, 2 mM DTT, 0.1 ug/uL BSA; 30 min, 4 C
T2 sequence: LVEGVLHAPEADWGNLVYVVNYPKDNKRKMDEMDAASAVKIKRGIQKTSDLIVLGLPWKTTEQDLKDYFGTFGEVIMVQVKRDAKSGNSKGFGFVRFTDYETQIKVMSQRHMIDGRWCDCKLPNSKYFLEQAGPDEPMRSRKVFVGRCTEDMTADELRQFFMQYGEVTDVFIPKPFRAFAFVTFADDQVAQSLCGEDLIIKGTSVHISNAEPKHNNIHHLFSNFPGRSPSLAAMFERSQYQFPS

[2] = target: e_gw1.13.00.297.1 (Ostreococcus tauri) (UniProt A0A096P8F1); conditions: 20 nM protein, 1.5 uM RNA pool; 20 mM HEPES pH 7.8, 70 mM KCl, 10 mM NaCl, 10% glycerol, 2 mM DTT, 0.1 ug/uL BSA; 30 min, 4 C
[3] = target: T3, SCHCODRAFT_80278 (Schizophyllum commune) (UniProt A0ACF2ERL4); conditions: 20 nM protein, 1.5 uM RNA pool; 20 mM HEPES pH 7.8, 70 mM KCl, 10 mM NaCl, 10% glycerol, 2 mM DTT, 0.1 ug/uL BSA; 30 min, 4 C
T3 sequence: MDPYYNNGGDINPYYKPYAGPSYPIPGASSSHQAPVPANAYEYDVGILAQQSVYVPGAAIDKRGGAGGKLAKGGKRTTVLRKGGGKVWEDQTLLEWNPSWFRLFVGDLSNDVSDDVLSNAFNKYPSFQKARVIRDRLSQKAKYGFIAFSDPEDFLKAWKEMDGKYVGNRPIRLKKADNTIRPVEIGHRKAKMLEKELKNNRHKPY

[4] = target: T4, LmjF.34.4560 (Leishmania major) (UniProt Q4Q285); conditions: 20 nM protein, 1.5 uM RNA pool; 20 mM HEPES pH 7.8, 70 mM KCl, 10 mM NaCl, 10% glycerol, 2 mM DTT, 0.1 ug/uL BSA; 30 min, 4 C
T4 sequence: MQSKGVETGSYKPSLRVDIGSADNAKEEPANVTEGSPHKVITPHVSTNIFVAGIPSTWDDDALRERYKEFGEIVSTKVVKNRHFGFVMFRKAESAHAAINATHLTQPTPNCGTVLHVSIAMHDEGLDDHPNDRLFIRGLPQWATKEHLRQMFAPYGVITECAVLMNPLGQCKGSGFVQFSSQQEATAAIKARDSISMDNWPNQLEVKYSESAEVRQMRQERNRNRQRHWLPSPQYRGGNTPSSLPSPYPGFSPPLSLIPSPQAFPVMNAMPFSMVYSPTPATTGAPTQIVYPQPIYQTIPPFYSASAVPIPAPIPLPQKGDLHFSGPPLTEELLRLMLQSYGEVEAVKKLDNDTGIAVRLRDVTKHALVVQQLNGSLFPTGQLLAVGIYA

[5] = target: T5, CG1316 G229S (Drosophila melanogaster) (UniProt Q7JRD2); conditions: 20 nM protein, 1.5 uM RNA pool; 20 mM HEPES pH 7.8, 70 mM KCl, 10 mM NaCl, 10% glycerol, 2 mM DTT, 0.1 ug/uL BSA; 30 min, 4 C
T5 sequence: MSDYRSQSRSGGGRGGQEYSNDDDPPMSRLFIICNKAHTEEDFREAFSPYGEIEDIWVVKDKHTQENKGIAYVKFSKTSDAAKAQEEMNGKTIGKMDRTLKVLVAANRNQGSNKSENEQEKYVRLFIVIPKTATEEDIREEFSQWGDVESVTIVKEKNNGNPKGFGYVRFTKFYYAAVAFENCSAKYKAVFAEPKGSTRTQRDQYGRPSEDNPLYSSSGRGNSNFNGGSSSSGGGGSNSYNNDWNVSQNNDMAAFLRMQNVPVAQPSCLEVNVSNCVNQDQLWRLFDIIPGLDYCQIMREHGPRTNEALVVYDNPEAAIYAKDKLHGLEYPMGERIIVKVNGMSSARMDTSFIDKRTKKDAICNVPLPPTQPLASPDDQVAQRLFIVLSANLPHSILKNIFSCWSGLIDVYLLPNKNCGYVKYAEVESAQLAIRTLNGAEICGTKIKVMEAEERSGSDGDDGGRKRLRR

[6] = target: T6, LmjF.25.0080 (Leishmania major) (UniProt Q4QA88); conditions: 20 nM protein, 1.5 uM RNA pool; 20 mM HEPES pH 7.8, 70 mM KCl, 10 mM NaCl, 10% glycerol, 2 mM DTT, 0.1 ug/uL BSA; 30 min, 4 C
T6 sequence: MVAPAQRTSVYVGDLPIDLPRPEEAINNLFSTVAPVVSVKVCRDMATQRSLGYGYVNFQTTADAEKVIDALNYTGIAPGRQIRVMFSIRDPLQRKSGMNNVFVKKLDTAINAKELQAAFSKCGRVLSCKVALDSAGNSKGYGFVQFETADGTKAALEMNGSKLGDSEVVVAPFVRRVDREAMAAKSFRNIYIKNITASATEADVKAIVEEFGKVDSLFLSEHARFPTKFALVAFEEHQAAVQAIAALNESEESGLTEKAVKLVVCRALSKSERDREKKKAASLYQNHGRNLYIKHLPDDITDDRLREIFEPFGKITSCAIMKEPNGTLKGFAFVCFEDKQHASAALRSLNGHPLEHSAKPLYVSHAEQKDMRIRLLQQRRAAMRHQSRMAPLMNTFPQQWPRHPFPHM

[7] = target: T7, HRP1 (Saccharomyces cerevisiae) (UniProt Q99383); conditions: 20 nM protein, 1.5 uM RNA pool; 20 mM HEPES pH 7.8, 70 mM KCl, 10 mM NaCl, 10% glycerol, 2 mM DTT, 0.1 ug/uL BSA; 30 min, 4 C (protocol of this paper; not …); cited from earlier work
T7 sequence: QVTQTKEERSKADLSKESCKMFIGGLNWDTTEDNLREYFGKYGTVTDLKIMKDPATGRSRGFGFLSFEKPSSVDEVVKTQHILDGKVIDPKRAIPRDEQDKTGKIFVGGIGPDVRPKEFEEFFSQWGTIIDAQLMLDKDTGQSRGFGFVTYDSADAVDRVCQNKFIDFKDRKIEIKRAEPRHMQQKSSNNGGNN

[8] = target: T8, LmjF.18.0190 (Leishmania major) (UniProt Q4QE23); conditions: 20 nM protein, 1.5 uM RNA pool; 20 mM HEPES pH 7.8, 70 mM KCl, 10 mM NaCl, 10% glycerol, 2 mM DTT, 0.1 ug/uL BSA; 30 min, 4 C
T8 sequence: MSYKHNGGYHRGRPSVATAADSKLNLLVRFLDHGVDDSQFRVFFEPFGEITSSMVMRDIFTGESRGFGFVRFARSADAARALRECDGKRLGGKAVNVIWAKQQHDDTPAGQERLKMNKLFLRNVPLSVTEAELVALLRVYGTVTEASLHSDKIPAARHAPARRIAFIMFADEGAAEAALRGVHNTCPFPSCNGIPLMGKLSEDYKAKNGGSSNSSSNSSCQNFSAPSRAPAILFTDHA

Chain of e_gw1.13.00.297.1 (Ostreococcus tauri) (A0A096P8F1 entry or part of it): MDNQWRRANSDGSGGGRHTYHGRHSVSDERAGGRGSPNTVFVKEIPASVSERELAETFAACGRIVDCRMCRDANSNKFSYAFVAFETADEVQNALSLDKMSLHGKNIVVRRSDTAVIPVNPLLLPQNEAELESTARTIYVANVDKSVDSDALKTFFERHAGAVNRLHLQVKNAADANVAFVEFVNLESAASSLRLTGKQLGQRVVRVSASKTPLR

## GGUAGGG [RNAcompete motif RNCMPT00029]
[1]
  binding signal (z-score (mean of top ten 7-mers)): 13.4

## UGAAUG [RNAcompete motif RNCMPT00683]
Tardbpl (Danio rerio)
  binding signal (z-score (mean of top ten 7-mers)): 11.3

## AAUAAG [RNAcompete motif RNCMPT00681]
[2]
  binding signal (z-score (mean of top ten 7-mers)): 20.7

## AACUAC [RNAcompete motif RNCMPT00678]
[3]
  binding signal (z-score (mean of top ten 7-mers)): 13.6

## ACAACU [RNAcompete motif RNCMPT00691]
[4]
  binding signal (z-score (mean of top ten 7-mers)): 18.4

## GACNGAC [RNAcompete motif RNCMPT00698]
[5]
  binding signal (z-score (mean of top ten 7-mers)): 10.1

## AGAAAA [RNAcompete motif RNCMPT00688]
[6]
  binding signal (z-score (mean of top ten 7-mers)): 9.16

## UAUGUA [RNAcompete motif RNCMPT00031]
[7]
  binding signal (z-score (mean of top ten 7-mers)): 23.4

## CUCAUUU [RNAcompete motif RNCMPT00687]
[8]
  binding signal (z-score (mean of top ten 7-mers)): 20.6
